# From patent US20110263451A1, “BIOLOGICAL MARKERS PREDICTIVE OF RHEUMATOID ARTHRITIS RESPONSE TO LYMPHOTOXIN ANTAGONISTS” (GENENTECH, INC, priority 2008, published 2011)
# B1: muLTβR-Fc: recombinant murine LTβ receptor conjugated to an immunoglobulin Fc region (murine IgG2a Fc) (protein)
# chain: QLVPPYRIENQTCWDQDKEYYEPMHDVCCSRCPPGEFVFAVCSRSQDTVCKTCPHNSYNEHWNHLSTCQLCRPCDIVLGFEEVAPCTSDRKAECRCQPGMSCVYLDNECVHCEEERLVLCQPGTEAEVTDEIMDTDVNCVPCKPGHFQNTSSPRARCQPHTRCEIQGLVEAAPGTSYSDTICKNPPEPGAML
# modifications: left off: a dimerising Fc or GST
# Columns and labels:
# solLTαβ [1] = assay: solLTαβ levels in serum of CIA mice (murine LTαβ ECLA); type: in vivo, mouse (DBA-1J); settings: 6 mg/kg s.c. three times weekly, treated for 11 days, FIG. 4A
# Description: (§1) Soluble mouse LTαβ was measured using streptavidin coated 96-Well Microtiter plates (Meso Scale Discovery). Wells were then blocked with 150 uL of PBS containing 5% bovine serum albumin for 1-2 hours. Twenty-five uL per well of 1 μg/ml murine LTβR-Fc-biotin (R&D Systems) diluted in PBS/0.05% Tween® was then incubated with the blocked plate for 30 minutes. The wells were washed 6× with PBS containing 0.05% Tween®-20 (PBS/Tween®) and a titration curve of recombinant mouse LTα1β2 (R&D Systems), controls and unknown test samples diluted in high salt assay diluent (PBS, 0.5% BSA, 0.05% Tween® 20, 10 ppm Proclin, 5 mM EDTA, 0.2% BGG, 0.25% CHAPS+3.5 mM NaCl pH 7.4) were added at 25 μl/well and incubated for 2 hours. The wells were washed 6× with PBS/Tween® and an anti-LTα monoclonal antibody (N3EV) (Genentech) labeled with SULFO-TAG® NHS (Meso Scale Discovery) was diluted to 3 ug/ml in assay diluent and added to the wells at 25 μl/well for 1 hour. The plate was washed with wash buffer 6× and 150 μl/well of Read Buffer T (Meso Scale Discovery) diluted 1:2 in H20 was added to the plate. The plate was immediately read on an MA6000 SECTOR™ Imager (Meso Scale Discovery). A weighted 4-parameter fit curve was plotted using XLFit (Guildford, UK) from the resulting standard curve values and unknown concentrations were extrapolated. […]
# solLTαβ [2] = assay: solLTαβ levels in serum of EAE mice (murine LTαβ ECLA); type: in vivo, mouse (SJL/J); settings: 6 mg/kg s.c. three times a week, FIG. 3
# Description: as §1, with “The wells were washed 6× with PBS/Tween® and an anti-LTα monoclonal antibody (N3EV) (Genentech) labeled with SULFO-TAG® NHS (Meso Scale Discovery) was diluted to 3 ug/ml in assay diluent and added to the wells at 25 μl/well for 1 hour.” left out, “Discovery).” for “Discovery). A weighted 4-parameter fit curve was plotted using XLFit (Guildford, UK) from the resulting standard curve values and unknown concentrations were extrapolated.”
# Female SJL/J mice were immunized intradermally at the base of the tail with 200 μl of emulsion containing 150 μg of peptide PLP 139-151 in 100 μl of PBS and 100 μl of CFA. […] Animals were evaluated daily for clinical signs using the same grading system as for the transgenic mice.
molecule,measurement,setting,value
B1,solLTαβ levels in serum,solLTαβ [1],Elevated
same,solLTαβ levels in serum,solLTαβ [2],Elevated
